Substitutions are numbered along the chain they refer to.
B1: A9 (antibody, V domains shown)
VH: QVQLVESGGGVVQPGRSLRLSCAASGFTFSNYGMHWVRQAPGKGLEWVAVIWYDGTNKFYADSVKGRFTISRDNSKNTLYLQMNSLRAEDTAVYYCATNSDDYWGQGTLVTVSS
VL: AIQMTQSPSSLSASVGDRVTITCRASQDIRNDLGWYQQKPGKAPKLLIYAASLLRSGVPSRFSGSGSGTDFTLTISSLQPEDFATYYCLQDNNYPRTFGQGTKVEIK
notes: Tested as full-length mAb expressed in CHO cells; also called antibody A9; L9H9
B2: A28 (antibody, V domains shown)
VH: QVQLVESGGGLVKPGGSLKLSCAASGFTFSDYGMHWVRQAPEKGLEWVAYISSGSFAIYYADTVRGRFTISRDSAKNTLFLQMTSLRSEDTAMYYCARRGPYPYYYSMDYWGQGTSVTVSS
VL: B1 VL with D28G, R30S, N31S, D32A, G34A, L53T, R55Q, N92Y, R96W
notes: Tested as full-length mAb expressed in CHO cells; also called antibody 28; L28H28
B3: A1 (antibody, V domains shown)
VH: QVQLVESGGGVVQPGRSLRLSCAASGFTFSNYGMHWVRQAPGKGLEWVAVIWYDGSNKYYTDSVKGRFTISRDNSKNTLYLQMNSLRAEDTAVYYCAGGGNYYGDYWGQGTLVTVSS
VL: DIQMTQSPSSLSASVGDRVTITCRASQGIRNDLGWYQQKPGKAPKRLIYVASSLQSGVPSRFSGSGSGTEFTLTISSLQPEDFATYYCLQHNSYPLTFGGGTKVEIKR
notes: Tested as full-length mAb expressed in CHO cells; also called antibody A1; L1H1
B4: A6 (antibody, V domains shown)
VH: B3 VH with N31S, T61A, Y103W, Y106F
VL: B3 VL with I48L, V50A, S53N, S56L, G68E, L96W, G100Q
notes: Tested as full-length mAb expressed in CHO cells; also called antibody A6; L6H6
B5: A3 (antibody, V domains shown)
VH: B3 VH with V11E, N31D, T61A, N101S, Y103W
VL: B3 VL with D32E, V50A, N92Y, S93I, L96W, G100Q
notes: Tested as full-length mAb expressed in CHO cells; also called antibody A3; L3H3
B6: A5 (antibody, V domains shown)
VH: QVQLVESGGGVVQPGRSLRLSCAASGFTFSNYGTHWVRQAPGKGLEWVAVIWYDGSNKYYADSVKGRFTISRDNSKNTLYLQMNSLRAEDTAVYYCARDRIYCSSTRCIGFGYYYYGMDVWGQGTTVTVSS
VL: AIQLTQSPSSLSASVGDRVTITCRASQGISSALAWYQQKPGKAPKLLIYDASSLESGVPSRFSGSGSGTDFTLTISSLQPEDFATYYCQQFNNYPWTFGQGTKVEIKR
notes: Tested as full-length mAb expressed in CHO cells; also called antibody A5; L5H5
B7: A27 (antibody, V domains shown)
VH: QVQLVQSGAELVRPGTSVKLSCRASGYTFTTYWMHWVKQRPGQGLEWIGVIDPSDSYTYYNQKFKGKATLTVDTSSSTAYMQLSSLTSEDSAVYFCARNWDYWGQGTTLTVSS
VL: AIQLTQSPSSLSASVGDRVTITCRASQGISSALAWYQQKPGKAPKLLIYDASSLESGVPSRFSGSGSGTDFTLTISSLQPEDFATYYCQQFNDYALTFGGGTKVEIK
notes: Tested as full-length mAb expressed in CHO cells; also called antibody 27; L27H27
B8: A10 (antibody, V domains shown)
VH: QVQLVQSGAEVKKPGASVKVSCKASGYTFAIYGISWVRQAPGQGLEWMGWISAYSDNSNYAQKLQGRVTMTTDTSTSTAYMELRSLRSDDTAVYYCVRDGSHGDYYYGMDVWGQGTTVTVSS
VL: DIQMTQSPSSLSASVGDRVTITCRASQGISSWLAWYQQKPEKAPKSLIYAASSLQSGVPSRFSGSGSGTDFTLTISSLQPEDFATYYCQQYNSYPYTFGQGTKLEIK
notes: Tested as full-length mAb expressed in CHO cells; also called antibody A10; L10H10
B9: A4 (antibody, V domains shown)
VH: B8 VH with I31T, I34V, S58I, K63N, M70I, V97A
VL: DIQMTQSPSSLSASVGDRVTITCRASQGISSWLAWYQQKPEKAPKSLIYAASSLQSGVPSRFSGSGSGTDFTLTISSLQPEDFATYYCQQYNSYPYTFGQGTKLEIKR
notes: Tested as full-length mAb expressed in CHO cells; also called antibody A4; L4H4
B10: A11 (antibody, V domains shown)
VH: B8 VH with K23R, A30T, I31N, A53V, S58T, N59H, A61P, V97A, G108V, V111L
VL: B8 VL with R18S, V19I, Y91F
notes: Tested as full-length mAb expressed in CHO cells; also called antibody A11; L11H11
B11: Pembrolizumab (antibody, V domains shown)
VH: QVQLVQSGVEVKKPGASVKVSCKASGYTFTNYYMYWVRQAPGQGLEWMGGINPSNGGTNFNEKFKNRVTLTTDSSTTTAYMELKSLQFDDTAVYYCARRDYRFDMGFDYWGQGTTVTVSS
VL: EIVLTQSPATLSLSPGERATLSCRASKGVSTSGYSYLHWYQQKPGQAPRLLIYLASYLESGVPARFSGSGSGTDFTLTISSLEPEDFAVYYCQHSRDLPLTFGGGTKVEIKR
B12: A8 (antibody, V domains shown)
VH: QVQLVESGGGVVQPGRSLRLSCAASGFTFSSYGMHWVRQAPGKGLEWVAVIWYDGSIKYYADSVKGRFTISRDNSKNTLYLQMNSLRAEDTAVYYCANDILTGSFDYWGQGTLVTVSS
VL: EIVLTQSPATLSLSPGERATLSCRASQSVSSYLAWYQQKPGQAPRLLIYDASNRATGIPARFSGSGSGTDFTLTISSLEPEDFAVYYCQQRNTWPYTFGQGTKLEIKR
notes: Tested as full-length mAb expressed in CHO cells; also called antibody A8; L8H8
B13: A7 (antibody, V domains shown)
VH: QVQLVQSGAEVKKPGASVKVSCKASGYTFTSYGINWVRQAPGQGLEWMGWISAYNGNRNYAQNLQGRVTMTSDTSTNTAYMELRSLRSYDTAVYYCARDHYDILTGYYKGGFDYWGQGTLVTVSS
VL: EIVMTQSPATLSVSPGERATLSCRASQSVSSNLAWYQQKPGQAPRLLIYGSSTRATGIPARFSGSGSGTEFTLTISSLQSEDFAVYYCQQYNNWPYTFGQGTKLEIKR
notes: Tested as full-length mAb expressed in CHO cells; also called antibody A7; L7H7
B14: A2 (antibody, V domains shown)
VH: QVQLVESGGGVVQPGRSLRLSCAASGFTFSSYGMHWVRQAPGKGLEWVALISYDGSNKYYADSVKGRFTISRDNSKNTLYLQMNSLRAEDTAVYYCARGGYFDPYGDYYYGMDVWGQGTTVTVSS
VL: B3 VL with G28A, Y36F, V50A, S60L, Y94F, L96W, G100Q
notes: Tested as full-length mAb expressed in CHO cells; also called antibody A2; L2H2

Biological target: PD-1 expressed on cells (human, UniProt Q15116 25-288)
Assay: cell-based or functional assay

Chain of PD-1 expressed on cells (Q15116 25-288 limits assumed): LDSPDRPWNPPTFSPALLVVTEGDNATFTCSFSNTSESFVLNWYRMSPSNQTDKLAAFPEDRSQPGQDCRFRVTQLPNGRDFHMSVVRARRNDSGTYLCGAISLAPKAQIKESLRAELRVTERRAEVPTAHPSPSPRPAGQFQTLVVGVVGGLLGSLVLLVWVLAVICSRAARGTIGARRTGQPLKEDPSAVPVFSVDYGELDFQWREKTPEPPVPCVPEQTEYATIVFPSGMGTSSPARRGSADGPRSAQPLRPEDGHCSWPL

In order of rising “PD-1/PD-L1 blockage (IC50, µg/ml)” value:
1. B1  0.461 µg/mL
2. B7  0.528 µg/mL
3. B2  0.542 µg/mL
4. B4  1.12 µg/mL
5. B6  1.31 µg/mL
6. B10  1.31 µg/mL
7. B5  1.34 µg/mL
8. B8  1.64 µg/mL
9. B9  2.12 µg/mL
10. B3  2.39 µg/mL

Biological target: T1, human PD-1 (soluble PD-1 protein, R&D Systems) (human, UniProt Q15116 25-170, limits assumed)
T1 construct: the kinetics paragraphs say only 'PD-1' / 'antigen'; also called hPD-1; soluble PD-1 immunogen
Assay: BLI, mAb on AHC biosensor, PD-1 as analyte
Method: (§1) The binding specificity and affinity of each full-length antibody towards PD-1 were determined using BLI and/or SPR. […] Anti-cyno PD-1 affinity was measured using BLI.
(§2) For BLI, antibodies were loaded onto an Anti-Human IgG Fc (AHC) biosensor using the Octet Red96 system (ForteBio). Loaded biosensors were dipped into antigen dilutions beginning at 300 nM, with 6 serial dilutions at 1:3. Kinetic analysis was performed using a 1:1 binding model and global fitting.

T1 sequence (Q15116 25-170 limits assumed): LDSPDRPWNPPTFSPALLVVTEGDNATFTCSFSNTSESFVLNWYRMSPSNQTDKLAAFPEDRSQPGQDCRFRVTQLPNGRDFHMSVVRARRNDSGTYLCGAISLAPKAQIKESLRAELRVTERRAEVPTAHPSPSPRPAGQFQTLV

In order of falling Kd:
1. B2  23.8 nM
2. B7  13.8 nM

Biological target: T2, Cyno PD-1 (cyno)
T2 construct: also called cynomolgus PD-1
Assay: BLI, mAb on AHC biosensor, cyno PD-1 as analyte
Method: as §1, §2

In order of rising Kd:
1. B9  0.1 nM
2. B8  12 nM
3. B11  14 nM
4. B4  26 nM
5. B1  42 nM
6. B12  447 nM

Biological target: T1, human PD-1 (soluble PD-1 protein, R&D …)
Assay: array SPR (Carterra), mAb captured, PD-1 as analyte
Method: (§3) For SPR, a moderate density (»1,000 Response Units) of an antihuman IgG-Fc reagent (Southern Biotech 2047-01) was amine-coupled to a Xantec CMD-50M chip (50 nm carboxymethyldextran medium density of functional groups) activated with 133 mM EDC (Sigma) and 33.3 mM S-NHS (ThermoFisher) in 100 mM MES pH 5.5. Then, goat anti-Human IgG Fc (Southern Biotech 2047-01) was coupled for 10 minutes at […] in 10 mM Sodim Acetate pH 4.5 (Carterra Inc.). The surface was then deactivated with 1 M ethanolamine pH 8.5 (Carterra Inc.). Running buffer used for the lawn immobilization was HBS-EPC (10 mM HEPES, 150 mM NaCl, 3 mM EDTA, 0.05% Tween 20, pH 7.4; Teknova).
(§4) The sensor chip was then transferred to a continuous flow microspotter (CFM; Carterra Inc.) for array capturing. The mAb supernatants were diluted 50-fold ([…] final concentration) into HBS-EPC with 1 mg/mL BSA. The samples were each captured twice with 15-minute and 4-minute capture steps on the first and second prints, respectively, to create multiple densities, using a […] flow rate. The running buffer in the CFM was also HBS-EPC.
(§5) Next, the sensor chip was loaded onto an SPR reader (MX-96 system; Ibis Technologies) for the kinetic analysis. […] PD-1 injections were 5 minutes with a 15-minute dissociation at […] in a non-regenerative kinetic series. An injection of the goat anti-Human IgG Fc capture antibody at […] was injected at the end of the series to verify the capture level of each mAb. Binding data was double referenced by subtracting an interspot surface and a blank injection and analyzed for ka (on-rate), kd (off-rate), and KD (affinity) using the Kinetic Interaction Tool software (Carterra Inc.).

In order of falling Kd:
1. B12  410 nM
2. B5  230 nM
3. B13  160 nM
4. B14  130 nM
5. B4  70 nM
6. B6  35 nM
7. B1  24 nM
8. B9  20 nM
9. B8  10 nM
10. B3  3.7 nM

In order of falling koff:
1. B12  0.035 s⁻¹
2. B14  0.011 s⁻¹
3. B5  0.0024 s⁻¹
4. B13  0.002 s⁻¹
5. B4  0.00086 s⁻¹
6. B1  0.00079 s⁻¹
7. B9  0.00025 s⁻¹
8. B6  0.00023 s⁻¹
9. B8  6.9e-05 s⁻¹
10. B3  2.6e-05 s⁻¹

In order of falling kon:
1. B12  84000 M⁻¹ s⁻¹
2. B14  80000 M⁻¹ s⁻¹
3. B1  32000 M⁻¹ s⁻¹
4. B13  12000 M⁻¹ s⁻¹
5. B4  12000 M⁻¹ s⁻¹
6. B9  12000 M⁻¹ s⁻¹
7. B5  10000 M⁻¹ s⁻¹
8. B3  7000 M⁻¹ s⁻¹
9. B8  6600 M⁻¹ s⁻¹
10. B6  6400 M⁻¹ s⁻¹

Biological target: T1, human PD-1 (soluble PD-1 protein, R&D …)
Assay: BLI (ForteBio), mAb on AHC biosensor, PD-1 as analyte
Method: as §2

In order of rising Kd:
1. B7  13.8 nM
2. B2  23.8 nM

In order of rising koff:
1. B7  0.000972 s⁻¹
2. B2  0.00418 s⁻¹

In order of rising kon:
1. B7  70400 M⁻¹ s⁻¹
2. B2  176000 M⁻¹ s⁻¹

Biological target: T1, human PD-1 (soluble PD-1 protein, R&D …)
Assay: array SPR, mAb captured on anti-human IgG Fc, PD-1 as analyte
Method: as §3, §4, §5

In order of falling Kd:
1. B12  410 nM
2. B5  230 nM
3. B13  160 nM
4. B14  130 nM
5. B4  70 nM
6. B6  35 nM
7. B1  24 nM
8. B9  20 nM
9. B8  10 nM
10. B3  3.7 nM

B10: no binding (tested: PD-1 injected up to 500 nM).
